# Laboratory results from publication PMC8688910.
# Target: IpaB (invasion plasmid antigen B), C-terminal his6-tag, produced in CFPS (S. flexneri 2a)
# Experiment: SEC-MALS; Superdex200 10/30 Increase, 50 mM Tris pH 8, 150 mM NaCl, 0.1% (v/v) LDAO, 0.5 mL/min, column 25 °C, about 50-100 μg injected
substance,measurement,value
"IpaB (invasion plasmid antigen B), C-terminal his6-tag, produced in CFPS (natural protein)",stoichiometry N,2
